Consider 30 sequences from the nanobody polyreactivity screen of Harvey et al. (2022).

The nature of the data set: yeast display, Sf9 membrane polyspecificity reagent, FACS + sequencing; frameworks hold sequencing errors. In a few lines:
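After 36–48 hours of galactose induction, yeast (Saccharomyces cerevisiae BJ5465) displaying a synthetic nanobody library were stained at 4 °C for 1 hour with 10% biotinylated, detergent-solubilized Sf9 membrane reagent. Streptavidin microbeads enriched the stained cells before FACS sorting into low and high (top ~1%) gates on anti-HA and streptavidin fluorescence. Each clone's polyreactivity label reflects its gate of origin.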
Take “QVQLVESGGGLVQAGGSLRLSCAASGRIFWYNAMGWYRQAPGKERELVAVITSGTSTYYADSVKGRFTISRDNAKNTVYVHMNSLKPDDTAVYYCAARYLSRYSERHYYDWGQGTQVTVSS”: the “polyreactivity (PSR sort gate)” value is given as “high polyreactivity”. In the case of “QVQLVESGGGLVQAGGSLRLSCAASGRIFWYNAMGWYRQAPGKERGLVAVISTRGGRTYYADSVKGRFTISRDNAKNTVYLQMNSLKPEDTAVYYCAAEFLNKAVGGVTSIYDSWGQGTQVTVSS”, the “polyreactivity (PSR sort gate)” value is given as “low polyreactivity”. The value for “QVQLVESGGGLVQAGGSLRLSCAASGRIFYAYTMGWYRQAPGKERELVAAISGSGSTYYADSVKGRFTISRDNAKNNVYLQMNSLKPEDTAVYYCAKRYRFHFWGQGTQVTVSS” was “low polyreactivity”; that for “QVQLVESGGGLVQAGGSLRLSCAASGRIFYAYTMGWYRQAPGKERELVAAISGSGSTYYADSVKGRFTISRDNAKNTVYLQMNSLKPEDTAVYYCAADVTGGRKYDYWGQGTQVTLSS” was “low polyreactivity”; that for “QVQLVESGGGLVQAGGSLRLSCAASGRIFYAYTMGWYRQAPGKESELVAAIRYGGGSTYYADSVKGRFTISRDNAKNTVYLLMNSLIPEDTAVYYCARDRYNLYSRSYYWGQGTQVTVSS” was “low polyreactivity”. The value for “QVQLVESGGGLVQAGGSLRLSCAASGRIFYDNAMGWYRQAPGKERELVAAISYSGDSTYYADSVKGRFTISRDNAKNTVYLQMNSLKPEDTAVYYCAAVYISQGAFAYDYWGQGTQVTVTS” was “low polyreactivity”; that for “QVQLVESGGGLVQAGGSLRLSCAASGRIFYDYAMGWYRQAPGKERELVAAISKGGGSTYYADSVKGRFTISRDNAKNTVYFQMNSLKPEDTAVYYCASSTSHTTDTRYDYWGQGTQVTVSS” was “low polyreactivity”; that for “QVQLVESGGGLVQAGGSLRLSCAASGRIFYDYTMGWYRPAPGKERELVAAINSGGGSTYYADSVKGRFTISRDNAKITVYLQMNSLKPEDTAVYYCNADGQWNIWEYDYWGQGTQVTVSS” was “high polyreactivity”. The entry for “QVQLVESGGGLVQAGGSLRLSCAASGRIFYDYTMGWYRQAPGKERELVAAINSGGGSTYYADSVKGRFTISRDNAKITVYLQMNSLKPEDTAVYYCNADGQWNIWEYDYWGQGTQVTVSS” is “high polyreactivity”. For “QVQLVESGGGLVQAGGSLRLSCAASGRIFYFYAMGWYRQAPGKERELVAAISTSGGSTYYPDSVKGRFTISRDNAKNTVYLQMNSLKQEDTAVYYCAARFRYYGSEYDYWGQGTQVTVSS”, the “polyreactivity (PSR sort gate)” value was “low polyreactivity”. The value for “QVQLVESGGGLVQAGGSLRLSCAASGRIFYFYAMGWYRQAPGKERELVASISYSGGNTYYADSVKGRFTISRDNAKNTVYLQMNSLKPEDTAVYYCNVLPNTGARGYYYWGQGTQVNVSS” was “low polyreactivity”. The value for “QVQLVESGGGLVQAGGSLRLSCAASGRIFYFYAMGWYRQAPGKERELVAVISYGGDRTSYADSVKGRFTISRDNAKNTVYLQMNSLKPEDTAVYYCAARPFYRGYYYWGQGTQVTVSS” was “high polyreactivity”; that for “QVQLVESGGGLVQAGGSLRLSCAASGRIFYFYTMGWYRQAPGKEREFVAAISDSGDGTYYADSVKGRFTISRDNAKNTVYLQMNSLKPEDTAVYYCAADGTLFSEYYWFFGYHDYWGQGTQVTVSS” was “high polyreactivity”. Take “QVQLVESGGGLVQAGGSLRLSCAASGRIFYGNAMGWYRQAPGKERELVARISSGSSTNYADSVKGRFTISRDNAKNTVYLQMNSLKPEDTAVYYCAARYTARRQSYGYWGQGTQVTVSS”: the “polyreactivity (PSR sort gate)” value was “high polyreactivity”. On to “QVQLVESGGGLVQAGGSLRLSCAASGRIFYGNAMGWYRQAPGKERQLVAAITDGGSTNYADSVKGRFTISRDNAKNTVYLQINSLKPEDTAVYYCNADNILYWSTLDYWGQGTQVTVSS”, for which the “polyreactivity (PSR sort gate)” value was “low polyreactivity”. Take “QVQLVESGGGLVQAGGSLRLSCAASGRIFYGNDRGWYRQAPGKERELVAAITWSGGSTYYADSVKGRFTISRDNAKNTVYLQMNSLKPEDTAVYYCAAVPRRGWDIRRYDSWGQGTQVTVSS”: the “polyreactivity (PSR sort gate)” value is listed as “high polyreactivity”.

For “QVQLVESGGGLVQAGGSLRLSCAASGRIFYGYAMGWYRQAPGKEREFVAAITSGGRTYYADSVKGRFTISRDNAKNTVYLQMNSLKPEDTAVYYCAAAQYYRYGYWGQGTQVTVSS”, the “polyreactivity (PSR sort gate)” value was “high polyreactivity”. As for “QVQLVESGGGLVQAGGSLRLSCAASGRIFYGYAMGWYRQAPGKEREFVARINVSGTSTFYADSVKGRFTISRDNAKNSVYLQMHSLKPEDTAVYYCAARGLPSNYYYYVHGYIMDYWGQGTQVTVSS”, the “polyreactivity (PSR sort gate)” value was “low polyreactivity”. The entry for “QVQLVESGGGLVQAGGSLRLSCAASGRIFYGYAMGWYRQAPGKERELVAAITRSSSTYYADSVKGRFTISRDNAKNTVYLQMNSLKPEDTAVYYCNARVWAKYDYWGQGTQVTVSS” is “high polyreactivity”; for “QVQLVESGGGLVQAGGSLRLSCAASGRIFYGYTMGCYRQAPGKETELVASITIRGSRTYYADSVKGRFTISRDNAKNTVYVQMNSLKPEDTAVYYCAADFVPARTVHRYDYWGQGTQVTVSS” it is “low polyreactivity”; for “QVQLVESGGGLVQAGGSLRLSCAASGRIFYGYTMGWYRQAPGKERELVAAISWSGGSTYYADSVKGRFTISRDNAKNTVYLQLNSLKPEDTAVYYCNAVTLWYIYGWDYYYWGQGTQVTVSS” it is “high polyreactivity”. “QVQLVESGGGLVQAGGSLRLSCAASGRIFYGYTMGWYRQAPGKERELVAAITRSTGSTYYADSVKGRFTISRDNAKNTVYLQMNSLKPEDTAVYYCAKYGYTNTPKSPMDYWGQGTQVTVSS”: the “polyreactivity (PSR sort gate)” value was “low polyreactivity”.

Consider “QVQLVESGGGLVQAGGSLRLSCAASGRIFYHNAMGWYRQAPGKERELVAAITWSGGSTYYADSVKGRFTISRDNAKNTVYLQMNSLKPEDTAVYYCAAYFYGRSYGYDYWGQGTQVTVSS”, for which the “polyreactivity (PSR sort gate)” value was “high polyreactivity”. With “QVQLVESGGGLVQAGGSLRLSCAASGRIFYHYAMGWYRQAPGKERELVAGINYRGGSTTYADSVKGRFTISRDNAKNTVYLQMNSLKPEDTAVYYCATLYPWKFPIRETGFDSWGQGTQVTVSS”, the “polyreactivity (PSR sort gate)” value is “low polyreactivity”. For “QVQLVESGGGLVQAGGSLRLSCAASGRIFYHYAMGWYRQAPGTERELVAAINSSGGSTHYADSVKGRFTISRDNAKNTVYLQMNSLKPVDTAVYYCAADGYWRDYSGYWDYYYIYDYWGQGTQVTVSS”, the “polyreactivity (PSR sort gate)” value was “low polyreactivity”.

Regarding “QVQLVESGGGLVQAGGSLRLSCAASGRIFYHYPMGWYRQAPGKEREFVAAISLRAGSTYYADSVKGRFTISRYNAKNNVYLQMNSLKPEDTAFYYCAARRASYVTSRYDYWGQGTQVTVSS”, the “polyreactivity (PSR sort gate)” value was “high polyreactivity”. With “QVQLVESGGGLVQAGGSLRLSCAASGRIFYINDMGWYRQAHGKERELVAAISASGGSTYYADSVKGRFTISRDNAKNTVYLQMNSLKPEDTAVYYCAAVYFHPGYDLFDYWGQGTQVTVSS”, the “polyreactivity (PSR sort gate)” value was “low polyreactivity”. In the case of “QVQLVESGGGLVQAGGSLRLSCAASGRIFYIYAMGWYRQAPGKERELVAAISSGGTTNYADSVKGRFTISRDNAKNTVYLQMNSLKPEDTAVYYCAAYWRSRNRFYWGQGTQVTVSS”, the “polyreactivity (PSR sort gate)” value is given as “high polyreactivity”. The entry for “QVQLVESGGGLVQAGGSLRLSCAASGRIFYKYAMGWYRQAPGKERELVAAISYSGGSTYYADSVKGRFTISRDNAKNTVYLQMKSLKPEDTAVYYCNAKPPYGVRSWGDYWGQGTQVTVSS” is “low polyreactivity”. The entry for “QVQLVESGGGLVQAGGSLRLSCAASGRIFYLNAMGWYRQAPGKERELVAAITRSAASTHYADSVKGRFTISRDNAKNTVYLQMNSLKPEDTAVYYCAARFWYDYRHYDYWGQGTQVTVSS” is “low polyreactivity”.
